B1: Phospholipid-transporting ATPase VA (Homo sapiens), O60312 (parent)
chain: MEREPAGTEEPGPPGRRRRREGRTRTVRSNLLPPPGAEDPAAGAAKGERRRRRGCAQHLADNRLKTTKYTLLSFLPKNLFEQFHRPANVYFVFIALLNFVPAVNAFQPGLALAPVLFILAITAFRDLWEDYSRHRSDHKINHLGCLVFSREEKKYVNRFWKEIHVGDFVRLRCNEIFPADILLLSSSDPDGLCHIETANLDGETNLKRRQVVRGFSELVSEFNPLTFTSVIECEKPNNDLSRFRGCIIHDNGKKAGLYKENLLLRGCTLRNTDAVVGIVIYAGHETKALLNNSGPRYKRSKLERQMNCDVLWCVLLLVCMSLFSAVGHGLWIWRYQEKKSLFYVPKSDGSSLSPVTAAVYSFLTMIIVLQVLIPISLYVSIEIVKACQVYFINQDMQLYDEETDSQLQCRALNITEDLGQIQYIFSDKTGTLTENKMVFRRCTVSGVEYSHDANAQRLARYQEADSEEEEVVPRGGSVSQRGSIGSHQSVRVVHRTQSTKSHRRTGSRAEAKRASMLSKHTAFSSPMEKDITPDPKLLEKVSECDKSLAVARHQEHLLAHLSPELSDVFDFFIALTICNTVVVTSPDQPRTKVRVRFELKSPVKTIEDFLRRFTPSCLTSGCSSIGSLAANKSSHKLGSSFPSTPSSDGMLLRLEERLGQPTSAIASNGYSSQADNWASELAQEQESERELRYEAESPDEAALVYAARAYNCVLVERLHDQVSVELPHLGRLTFELLHTLGFDSVRKRMSVVIRHPLTDEINVYTKGADSVVMDLLQPCSSVDARGRHQKKIRSKTQNYLNVYAAEGLRTLCIAKRVLSKEEYACWLQSHLEAESSLENSEELLFQSAIRLETNLHLLGATGIEDRLQDGVPETISKLRQAGLQIWVLTGDKQETAVNIAYACKLLDHDEEVITLNATSQEACAALLDQCLCYVQSRGLQRAPEKTKGKVSMRFSSLCPPSTSTASGRRPSLVIDGRSLAYALEKNLEDKFLFLAKQCRSVLCCRSTPLQKSMVVKLVRSKLKAMTLAIGDGANDVSMIQVADVGVGISGQEGMQAVMASDFAVPKFRYLERLLILHGHWCYSRLANMVLYFFYKNTMFVGLLFWFQFFCGFSASTMIDQWYLIFFNLLFSSLPPLVTGVLDRDVPANVLLTNPQLYKSGQNMEEYRPRTFWFNMADAAFQSLVCFSIPYLAYYDSNVDLFTWGTPIVTIALLTFLLHLGIETKTWTWLNWITCGFSVLLFFTVALIYNASCATCYPPSNPYWTMQALLGDPVFYLTCLMTPVAALLPRLFFRSLQGRVFPTQLQLARQLTRKSPRRCSAPKETFAQGRLPKDSGTEHSSGRTVKTSVPLSQPSWHTQQPVCSLEASGEPSTVDMSMPVREHTLLEGLSAPAPMSSAPGEAVLRSPGGCPEESKVRAASTGRVTPLSSLFSLPTFSLLNWISSWSLVSRLGSVLQFSRTEQLADGQAGRGLPVQPHSGRSGLQGPDHRLLIGASSRRSQ
partner: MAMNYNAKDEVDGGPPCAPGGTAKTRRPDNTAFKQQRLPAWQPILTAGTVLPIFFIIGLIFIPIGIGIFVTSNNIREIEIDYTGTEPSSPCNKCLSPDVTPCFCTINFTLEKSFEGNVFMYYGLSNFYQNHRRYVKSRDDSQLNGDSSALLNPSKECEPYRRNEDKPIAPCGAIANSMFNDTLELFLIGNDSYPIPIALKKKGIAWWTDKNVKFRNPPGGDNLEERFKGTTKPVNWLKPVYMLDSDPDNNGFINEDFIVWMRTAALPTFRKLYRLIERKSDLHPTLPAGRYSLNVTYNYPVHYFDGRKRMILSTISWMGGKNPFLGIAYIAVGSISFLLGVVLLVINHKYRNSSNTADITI
B2: Phospholipid-transporting ATPase IG (Homo sapiens), Q8NB49 (parent)
chain: MQMVPSLPPASECAGEEKRVGTRTVFVGNHPVSETEAYIAQRFCDNRIVSSKYTLWNFLPKNLFEQFRRIANFYFLIIFLVQVTVDTPTSPVTSGLPLFFVITVTAIKQGYEDCLRHRADNEVNKSTVYIIENAKRVRKESEKIKVGDVVEVQADETFPCDLILLSSCTTDGTCYVTTASLDGESNCKTHYAVRDTIALCTAESIDTLRAAIECEQPQPDLYKFVGRINIYSNSLEAVARSLGPENLLLKGATLKNTEKIYGVAVYTGMETKMALNYQGKSQKRSAVEKSINAFLIVYLFILLTKAAVCTTLKYVWQSTPYNDEPWYNQKTQKERETLKVLKMFTDFLSFMVLFNFIIPVSMYVTVEMQKFLGSFFISWDKDFYDEEINEGALVNTSDLNEELGQVDYVFTDKTGTLTENSMEFIECCIDGHKYKGVTQEVDGLSQTDGTLTYFDKVDKNREELFLRALCLCHTVEIKTNDAVDGATESAELTYISSSPDEIALVKGAKRYGFTFLGNRNGYMRVENQRKEIEEYELLHTLNFDAVRRRMSVIVKTQEGDILLFCKGADSAVFPRVQNHEIELTKVHVERNAMDGYRTLCVAFKEIAPDDYERINRQLIEAKMALQDREEKMEKVFDDIETNMNLIGATAVEDKLQDQAAETIEALHAAGLKVWVLTGDKMETAKSTCYACRLFQTNTELLELTTKTIEESERKEDRLHELLIEYRKKLLHEFPKSTRSFKKAWTEHQEYGLIIDGSTLSLILNSSQDSSSNNYKSIFLQICMKCTAVLCCRMAPLQKAQIVRMVKNLKGSPITLSIGDGANDVSMILESHVGIGIKGKEGRQAARNSDYSVPKFKHLKKLLLAHGHLYYVRIAHLVQYFFYKNLCFILPQFLYQFFCGFSQQPLYDAAYLTMYNICFTSLPILAYSLLEQHINIDTLTSDPRLYMKISGNAMLQLGPFLYWTFLAAFEGTVFFFGTYFLFQTASLEENGKVYGNWTFGTIVFTVLVFTVTLKLALDTRFWTWINHFVIWGSLAFYVFFSFFWGGIIWPFLKQQRMYFVFAQMLSSVSTWLAIILLIFISLFPEILLIVLKNVRRRSARRNLSCRRASDSLSARPSVRPLLLRTFSDESNVL
partner: B1 partner
B3: Phospholipid-transporting ATPase IF (Homo sapiens), Q9Y2G3 (parent)
chain: MWRWIRQQLGFDPPHQSDTRTIYVANRFPQNGLYTPQKFIDNRIISSKYTVWNFVPKNLFEQFRRVANFYFLIIFLVQLMIDTPTSPVTSGLPLFFVITVTAIKQGYEDWLRHNSDNEVNGAPVYVVRSGGLVKTRSKNIRVGDIVRIAKDEIFPADLVLLSSDRLDGSCHVTTASLDGETNLKTHVAVPETALLQTVANLDTLVAVIECQQPEADLYRFMGRMIITQQMEEIVRPLGPESLLLRGARLKNTKEIFGVAVYTGMETKMALNYKSKSQKRSAVEKSMNTFLIIYLVILISEAVISTILKYTWQAEEKWDEPWYNQKTEHQRNSSKILRFISDFLAFLVLYNFIIPISLYVTVEMQKFLGSFFIGWDLDLYHEESDQKAQVNTSDLNEELGQVEYVFTDKTGTLTENEMQFRECSINGMKYQEINGRLVPEGPTPDSSEGNLSYLSSLSHLNNLSHLTTSSSFRTSPENETELIKEHDLFFKAVSLCHTVQISNVQTDCTGDGPWQSNLAPSQLEYYASSPDEKALVEAAARIGIVFIGNSEETMEVKTLGKLERYKLLHILEFDSDRRRMSVIVQAPSGEKLLFAKGAESSILPKCIGGEIEKTRIHVDEFALKGLRTLCIAYRKFTSKEYEEIDKRIFEARTALQQREEKLAAVFQFIEKDLILLGATAVEDRLQDKVRETIEALRMAGIKVWVLTGDKHETAVSVSLSCGHFHRTMNILELINQKSDSECAEQLRQLARRITEDHVIQHGLVVDGTSLSLALREHEKLFMEVCRNCSAVLCCRMAPLQKAKVIRLIKISPEKPITLAVGDGANDVSMIQEAHVGIGIMGKEGRQAARNSDYAIARFKFLSKLLFVHGHFYYIRIATLVQYFFYKNVCFITPQFLYQFYCLFSQQTLYDSVYLTLYNICFTSLPILIYSLLEQHVDPHVLQNKPTLYRDISKNRLLSIKTFLYWTILGFSHAFIFFFGSYLLIGKDTSLLGNGQMFGNWTFGTLVFTVMVITVTVKMALETHFWTWINHLVTWGSIIFYFVFSLFYGGILWPFLGSQNMYFVFIQLLSSGSAWFAIILMVVTCLFLDIIKKVFDRHLHPTSTEKAQLTETNAGIKCLDSMCCFPEGEAACASVGRMLERVIGRCSPTHISRSWSASDPFYTNDRSILTLSTMDSSTC
partner: B1 partner
B4: Phospholipid-transporting ATPase IH (Homo sapiens), P98196 (parent)
chain: MDCSLVRTLVHRYCAGEENWVDSRTIYVGHREPPPGAEAYIPQRYPDNRIVSSKYTFWNFIPKNLFEQFRRVANFYFLIIFLVQLIIDTPTSPVTSGLPLFFVITVTAIKQGYEDWLRHKADNAMNQCPVHFIQHGKLVRKQSRKLRVGDIVMVKEDETFPCDLIFLSSNRGDGTCHVTTASLDGESSHKTHYAVQDTKGFHTEEDIGGLHATIECEQPQPDLYKFVGRINVYSDLNDPVVRPLGSENLLLRGATLKNTEKIFGVAIYTGMETKMALNYQSKSQKRSAVEKSMNAFLIVYLCILISKALINTVLKYMWQSEPFRDEPWYNQKTESERQRNLFLKAFTDFLAFMVLFNYIIPVSMYVTVEMQKFLGSYFITWDEDMFDEETGEGPLVNTSDLNEELGQVEYIFTDKTGTLTENNMEFKECCIEGHVYVPHVICNGQVLPESSGIDMIDSSPSVNGREREELFFRALCLCHTVQVKDDDSVDGPRKSPDGGKSCVYISSSPDEVALVEGVQRLGFTYLRLKDNYMEILNRENHIERFELLEILSFDSVRRRMSVIVKSATGEIYLFCKGADSSIFPRVIEGKVDQIRARVERNAVEGLRTLCVAYKRLIQEEYEGICKLLQAAKVALQDREKKLAEAYEQIEKDLTLLGATAVEDRLQEKAADTIEALQKAGIKVWVLTGDKMETAAATCYACKLFRRNTQLLELTTKRIEEQSLHDVLFELSKTVLRHSGSLTRDNLSGLSADMQDYGLIIDGAALSLIMKPREDGSSGNYRELFLEICRSCSAVLCCRMAPLQKAQIVKLIKFSKEHPITLAIGDGANDVSMILEAHVGIGVIGKEGRQAARNSDYAIPKFKHLKKMLLVHGHFYYIRISELVQYFFYKNVCFIFPQFLYQFFCGFSQQTLYDTAYLTLYNISFTSLPILLYSLMEQHVGIDVLKRDPTLYRDVAKNALLRWRVFIYWTLLGLFDALVFFFGAYFVFENTTVTSNGQIFGNWTFGTLVFTVMVFTVTLKLALDTHYWTWINHFVIWGSLLFYVVFSLLWGGVIWPFLNYQRMYYVFIQMLSSGPAWLAIVLLVTISLLPDVLKKVLCRQLWPTATERVQTKSQCLSVEQSTIFMLSQTSSSLSF
partner: B1 partner

Variants of: B1
Details: with cc50a_human TMEM30A

Variant	effect of a mutation on the interaction
D427N	disrupting interaction strength
G202L	disrupting interaction strength
E203Q	increasing interaction strength

Variants of: B2
Details: with cc50a_human TMEM30A

Variant	effect of a mutation on the interaction
D412N	disrupting interaction strength
E184Q	increasing interaction strength
G183L	disrupting interaction strength

Variants of: B3
Details: with cc50a_human TMEM30A

Variant	effect of a mutation on the interaction
D407N	disrupting interaction strength
G179L	decreasing interaction strength
E180Q	increasing interaction strength

Variants of: B4
Details: with cc50a_human TMEM30A

Variant	effect of a mutation on the interaction
D414N	disrupting interaction strength
E186Q	increasing interaction strength
G185L	disrupting interaction strength

Reference: IntAct's records for PubMed 31571211
